B1: Frizzled-4 (Homo sapiens), Q9ULV1 (parent)
chain: MAWRGAGPSVPGAPGGVGLSLGLLLQLLLLLGPARGFGDEEERRCDPIRISMCQNLGYNVTKMPNLVGHELQTDAELQLTTFTPLIQYGCSSQLQFFLCSVYVPMCTEKINIPIGPCGGMCLSVKRRCEPVLKEFGFAWPESLNCSKFPPQNDHNHMCMEGPGDEEVPLPHKTPIQPGEECHSVGTNSDQYIWVKRSLNCVLKCGYDAGLYSRSAKEFTDIWMAVWASLCFISTAFTVLTFLIDSSRFSYPERPIIFLSMCYNIYSIAYIVRLTVGRERISCDFEEAAEPVLIQEGLKNTGCAIIFLLMYFFGMASSIWWVILTLTWFLAAGLKWGHEAIEMHSSYFHIAAWAIPAVKTIVILIMRLVDADELTGLCYVGNQNLDALTGFVVAPLFTYLVIGTLFIAAGLVALFKIRSNLQKDGTKTDKLERLMVKIGVFSVLYTVPATCVIACYFYEISNWALFRYSADDSNMAVEMLKIFMSLLVGITSGMWIWSAKTLHTWQKCSNRLVNSGKVKREKRGNGWVKPGKGSETVV
partner: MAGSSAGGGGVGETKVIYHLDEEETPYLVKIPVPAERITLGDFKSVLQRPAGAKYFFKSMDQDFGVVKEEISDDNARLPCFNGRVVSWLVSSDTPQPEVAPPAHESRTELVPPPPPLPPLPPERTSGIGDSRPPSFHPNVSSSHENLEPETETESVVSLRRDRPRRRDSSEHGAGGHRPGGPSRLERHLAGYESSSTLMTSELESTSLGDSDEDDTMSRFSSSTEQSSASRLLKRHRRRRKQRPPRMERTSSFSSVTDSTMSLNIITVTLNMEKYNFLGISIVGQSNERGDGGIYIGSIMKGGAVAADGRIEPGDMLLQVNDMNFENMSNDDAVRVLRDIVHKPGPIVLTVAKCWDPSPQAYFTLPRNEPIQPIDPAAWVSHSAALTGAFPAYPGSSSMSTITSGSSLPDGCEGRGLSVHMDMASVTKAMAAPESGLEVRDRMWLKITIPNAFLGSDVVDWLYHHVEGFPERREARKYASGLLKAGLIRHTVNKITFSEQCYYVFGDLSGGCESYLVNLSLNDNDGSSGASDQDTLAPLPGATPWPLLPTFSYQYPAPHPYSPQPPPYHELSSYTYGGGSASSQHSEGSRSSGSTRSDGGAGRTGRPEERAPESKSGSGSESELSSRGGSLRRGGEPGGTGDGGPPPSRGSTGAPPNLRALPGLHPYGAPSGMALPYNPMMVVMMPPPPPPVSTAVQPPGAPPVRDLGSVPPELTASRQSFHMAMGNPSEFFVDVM
B2: Frizzled-4 (Homo sapiens), Q9ULV1 (parent)
chain: B1 chain
partner: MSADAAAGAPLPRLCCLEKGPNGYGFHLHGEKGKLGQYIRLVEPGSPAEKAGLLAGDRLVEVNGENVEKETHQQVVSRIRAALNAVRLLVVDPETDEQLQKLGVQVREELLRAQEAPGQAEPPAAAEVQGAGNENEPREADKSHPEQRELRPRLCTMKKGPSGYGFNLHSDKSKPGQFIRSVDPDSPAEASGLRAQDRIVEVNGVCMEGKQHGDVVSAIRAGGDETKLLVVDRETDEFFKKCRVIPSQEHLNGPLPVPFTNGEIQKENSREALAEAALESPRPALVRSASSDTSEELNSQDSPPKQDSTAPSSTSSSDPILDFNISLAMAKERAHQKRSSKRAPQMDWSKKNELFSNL

This is an account of results in IntAct's records for PubMed 20802536.

Variants of B1 are the subject of the first test. The settings on record: with dvl2_mouse Dvl2, Q60838.
As to V537A, the “effect of a mutation on the interaction” value was “decreasing interaction”.

A further test covers variants of B2. The settings on record: with nhrf1_human NHERF1, O14745.
For the variant V537A, the “effect of a mutation on the interaction” value is on record as “decreasing interaction”.
